Data: patent US20040241845A1 (UNIVERSIT DE MONTR AL, published 2004)

T1: Staufen/YFP fusion protein (human, UniProt O95793 82-577)
T1 construct: BRET acceptor, expressed in live 293T cells; also called pCMV-Staufen/YFP; not shown: YFP of pCMV-GFP-Topaz (red-shifted GFP variant of Aequorea victoria GFP); its substitutions and the junction are not pri
T1 sequence: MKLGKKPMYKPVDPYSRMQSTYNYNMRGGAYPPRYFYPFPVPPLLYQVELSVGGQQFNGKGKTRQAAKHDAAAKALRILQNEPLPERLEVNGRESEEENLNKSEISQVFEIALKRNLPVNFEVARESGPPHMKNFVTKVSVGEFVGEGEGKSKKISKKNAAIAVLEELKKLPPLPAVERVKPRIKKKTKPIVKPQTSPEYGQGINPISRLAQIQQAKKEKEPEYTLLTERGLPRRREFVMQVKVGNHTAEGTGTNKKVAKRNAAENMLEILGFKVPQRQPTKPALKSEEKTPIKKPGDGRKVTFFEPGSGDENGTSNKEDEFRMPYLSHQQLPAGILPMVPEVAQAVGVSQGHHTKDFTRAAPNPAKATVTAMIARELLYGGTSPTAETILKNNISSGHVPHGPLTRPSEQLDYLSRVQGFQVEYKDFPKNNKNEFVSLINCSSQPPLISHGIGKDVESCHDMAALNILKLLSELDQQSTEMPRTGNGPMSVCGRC


Key:
[1] = biological target: T1, Staufen/YFP fusion protein; assay: BRET in live 293T cells
[2] = biological target: HIV-1 CA (processed form of pr55Gag, CAp24/p25) (HIV-1 (pNL4-3), UniProt P12493 133-363); assay: co-immunoprecipitation with anti-HA
[3] = biological target: T2, HIV-1 pr55Gag (Gag precursor expressed from pNL4-3 proviruses) (HIV-1 (pNL4-3), UniProt P12493 2-500); assay: co-immunoprecipitation with anti-CA, Western with anti-HA
T2 construct: In lysates of transfected 293T cells; The anti-CA antibody also pulls down pr41Gag and CAp24/p25

Binder | binding result [1] | other results
p2-p1/Rluc (other, domain: p2-p1; not shown: Renilla reniformis luciferase (Rluc) of pRluc-N1(h)) AEAMSQVTNSATIMMQRGNFRNQRKIVKCFNCGKEGHTARNCRAPRKKGCWKCGKEGHQMKDCTERQANFLGKIWPSYKGRPGNF | binds | –
MA/Rluc (other, domain: MA; not shown: Renilla reniformis luciferase (Rluc) of pRluc-N1(h)) MGARASVLSGGELDRWEKIRLRPGGKKKYKLKHIVWASRELERFAVNPGLLETSEGCRQILGQLQPSLQTGSEELRSLYNTVATLYCVHQRIEIKDTKEALDKIEEEQNKSKKKAQQAAADTGHSNQVSQNY | no binding | –
Staufen-HA (wild-type human Staufen, short isoform, HA-tagged) (other, Expressed in 293T cells from the pNL4-3/Staufen-HA chimeric provirus (in the nef reading frame) or from a Staufen-HA expressor (pcDNA3-RSV-hStau-HA); Runs as a 60 kDa band; also called hStau/HA; HA-hStau) MKLGKKPMYKPVDPYSRMQSTYNYNMRGGAYPPRYFYPFPVPPLLYQVELSVGGQQFNGKGKTRQAAKHDAAAKALRILQNEPLPERLEVNGRESEEENLNKSEISQVFEIALKRNLPVNFEVARESGPPHMKNFVTKVSVGEFVGEGEGKSKKISKKNAAIAVLEELKKLPPLPAVERVKPRIKKKTKPIVKPQTSPEYGQGINPISRLAQIQQAKKEKEPEYTLLTERGLPRRREFVMQVKVGNHTAEGTGTNKKVAKRNAAENMLEILGFKVPQRQPTKPALKSEEKTPIKKPGDGRKVTFFEPGSGDENGTSNKEDEFRMPYLSHQQLPAGILPMVPEVAQAVGVSQGHHTKDFTRAAPNPAKATVTAMIARELLYGGTSPTAETILKNNISSGHVPHGPLTRPSEQLDYLSRVQGFQVEYKDFPKNNKNEFVSLINCSSQPPLISHGIGKDVESCHDMAALNILKLLSELDQQSTEMPRTGNGPMSVCGRC | – | binding result [2]: no binding
Staufen F135A-HA (full-length Staufen with a point mutation in dsRBD3) (other, Expressed from the pNL4-3/StaufenF135A-HA chimeric provirus) MKLGKKPMYKPVDPYSRMQSTYNYNMRGGAYPPRYFYPFPVPPLLYQVELSVGGQQFNGKGKTRQAAKHDAAAKALRILQNEPLPERLEVNGRESEEENLNKSEISQVFEIALKRNLPVNFEVARESGPPHMKNAVTKVSVGEFVGEGEGKSKKISKKNAAIAVLEELKKLPPLPAVERVKPRIKKKTKPIVKPQTSPEYGQGINPISRLAQIQQAKKEKEPEYTLLTERGLPRRREFVMQVKVGNHTAEGTGTNKKVAKRNAAENMLEILGFKVPQRQPTKPALKSEEKTPIKKPGDGRKVTFFEPGSGDENGTSNKEDEFRMPYLSHQQLPAGILPMVPEVAQAVGVSQGHHTKDFTRAAPNPAKATVTAMIARELLYGGTSPTAETILKNNISSGHVPHGPLTRPSEQLDYLSRVQGFQVEYKDFPKNNKNEFVSLINCSSQPPLISHGIGKDVESCHDMAALNILKLLSELDQQSTEMPRTGNGPMSVCGRC | – | binding result [3]: no binding
p6/Rluc (other, domain: p6; not shown: Renilla reniformis luciferase (Rluc) of pRluc-N1(h)) LQSRPEPTAPPEESFRSGVETTTPPQKQEPIDKELYPLTSLRSLFGNDPSSQ | no binding | –
NC/Rluc (other, domain: NC; not shown: Renilla reniformis luciferase (Rluc) of pRluc-N1(h)) MQRGNFRNQRKIVKCFNCGKEGHTARNCRAPRKKGCWKCGKEGHQMKDCTERQAN | binds | –
